In US20220251174A1:

Biological target: SARS-CoV-2 Spike protein (Wuhan-1 isolate) on VSV pseudovirus particles (SARS-CoV-2) (UniProt P0DTC2)
Assay: cell-based or functional assay

REGN10933 (benchmark, human IgG1) (antibody)
IC50 in pseudovirus assays: 0.67 mg/L

REGN10987 (benchmark, human IgG1) (antibody)
IC50 in pseudovirus assays: 0.45 mg/L
